Conditions: Streptomyces sp. (strain N174), pH 7, Thermal, sodium phosphate 50 mM, whole UniProt chain shown
[1] = CD, transition: 3, reversible: yes(85%)
[2] = Fluorescence, reversible: yes(75%)

B1: Chitosanase wild type, P33665 (protein)
chain: MHSQHRTARIALAVVLTAIPASLATAGVGYASTQASTAVKAGAGLDDPHKKEIAMELVSSAENSSLDWKAQYKYIEDIGDGRGYTGGIIGFCSGTGDMLELVQHYTDLEPGNILAKYLPALKKVNGSASHSGLGTPFTKDWATAAKDTVFQQAQNDERDRVYFDPAVSQAKADGLRALGQFAYYDAIVMHGPGNDPTSFGGIRKTAMKKARTPAQGGDETTYLNAFLDARKAAMLTEAAHDDTSRVDTEQRVFLKAGNLDLNPPLKWKTYGDPYVINS
- Tm [1]: 42.7 °C
- unfolding enthalpy (van 't Hoff) [1]: 120 kcal/mol
- Tm [2]: 43.2 °C
- unfolding enthalpy (van 't Hoff) [2]: 161 kcal/mol
